The experiment has as its target mEPCR on mouse brain microvascular endothelial cells (bEND3) (mouse (endogenous in bEND3)) (UniProt Q64695). Put plainly: radioligand binding.

mEPCR on mouse brain microvascular endothelial cells (bEND3) (mouse (endogenous in bEND3)), sequence (Q64695 18-242): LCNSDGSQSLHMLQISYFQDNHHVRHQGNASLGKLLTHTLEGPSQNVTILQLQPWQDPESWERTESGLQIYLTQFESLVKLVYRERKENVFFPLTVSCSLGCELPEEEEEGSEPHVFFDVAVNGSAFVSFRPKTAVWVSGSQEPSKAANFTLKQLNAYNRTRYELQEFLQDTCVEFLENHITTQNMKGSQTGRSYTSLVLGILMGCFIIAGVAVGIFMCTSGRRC

On to Mouse APC (enzyme), for which the amount bound as percent of human APC at 50 nM was 30% and the fold increase of binding with 1 mM Mg2+ over Ca2+ alone is 3 fold.
As for “Recombinant activated human protein C (Xigris) (enzyme)”, the Kd was 23 nM and the fold increase of binding with 1 mM Mg2+ over Ca2+ alone came to 10 fold.

The Kd is the concentration at which binding is half-saturated. A low value points to tighter binding.

The values are drawn from PMC3883592.
